Laboratory results published in publication PMC4357697, “Sequence-specific cleavage of dsRNA by Mini-III RNase”.

Columns and labels:
BsMiniIII Δ5 = target: T1, BsMiniIII Δ5 (Bacillus subtilis ATCC 23857, UniProt O31418 1-143, del91-95); experiment: filter binding; 1 mM Ca2+; affinity not affected vs wild type; Filter binding: 10 mM Tris-HCl pH 7.5, 5 mM NaCl, 1 mM CaCl2, room temperature, 1 h; 0.01 µM labeled 30 bp dsRNA, 0.1-4 µM enzyme; details: protein: recombinant; tags: C-terminal His6; chain copies: 2; label: 32P end label (33P in Methods for the substrate); blunt
T1 sequence: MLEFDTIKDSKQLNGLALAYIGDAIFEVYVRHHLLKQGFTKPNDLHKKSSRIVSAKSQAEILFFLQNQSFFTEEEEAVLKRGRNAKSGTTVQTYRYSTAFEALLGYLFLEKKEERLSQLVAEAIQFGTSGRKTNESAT

BsMiniIII Δ10 = target: T2, BsMiniIII Δ10 (Bacillus subtilis ATCC 23857, UniProt O31418 1-143, del86-95); experiment: as above; details: protein: recombinant; tags: C-terminal His6; chain copies: 2; label: 32P end label (33P in Methods for the substrate); blunt
T2 sequence: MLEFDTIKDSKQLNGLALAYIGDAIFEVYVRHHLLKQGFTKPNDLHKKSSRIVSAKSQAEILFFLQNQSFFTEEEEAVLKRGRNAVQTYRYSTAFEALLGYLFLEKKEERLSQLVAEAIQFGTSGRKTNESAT

B1: 30 bp dsRNA (30f/30r) (dsRNA)
RNA 1: CGAUACCGUCGACCUCGAGGGGGGGCCCGG
RNA 2: CCGGGCCCCCCCUCGAGGUCGACGGUAUCG
Does B1 bind (BsMiniIII Δ5)?
Result: binds

Does B1 bind (BsMiniIII Δ10)?
Result: binds
